Experimental findings from US20230181640A1 (SHANGHAI ABELZETA, published 2023) are described below.

One may read the IC50 as the point on the concentration scale where inhibition reaches its midpoint. Read a low IC50 as higher potency.

First the molecules themselves.
B2: hBCMA-ECD-Fc (fusion protein of human BCMA extracellular domain Met1-Ala54 and human IgG1 Fc fragment Pro100-Lys330) (Fc fusion, UniProt Q02223 1-54, looked up)
chain: MLQMAGQCSQNEYFDSLLHACIPCQLRCSSNTPPLTCQRYCNASVTNSVKGTNA
notes: range 1-54; also the immunogen; also called soluble extracellular domain of human BCMA; not shown: human IgG1 Fc fragment, Pro100-Lys330

Assay [1] addresses B2. As to the kind of experiment: ELISA, chimeric antibody supernatant. For orientation: ELISA stands for enzyme-linked immunosorbent assay.
Assay [2] deals with T1, human BCMA on cells (L-BCMA+, K562-BCMA+, A549-BCMA-1D6) (human, UniProt Q02223 1-184).
T1 construct: whole, on cells; the cell line of each assay is named under assay; also called L-BCMA-1E6-A4; K562-BCMA-B22D8
T1 sequence (looked up): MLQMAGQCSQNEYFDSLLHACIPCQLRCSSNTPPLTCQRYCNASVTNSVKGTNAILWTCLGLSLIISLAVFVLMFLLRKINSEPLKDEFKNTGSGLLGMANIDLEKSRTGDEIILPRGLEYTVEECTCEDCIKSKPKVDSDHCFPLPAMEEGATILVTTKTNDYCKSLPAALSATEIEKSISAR
The assay can be described thus: FACS, chimeric antibody supernatant, L-BCMA+ cells. (In general: Flow cytometry measures light scatter and fluorescence of single cells or particles in a stream.)

The target of assay [3] is T2, hybridoma antibody 6G10-1D7 (mAb001).
T2 construct: tested as supernatant and purified; also called CP01
T2 sequence (VH, as listed by the source, chain 1 of 2): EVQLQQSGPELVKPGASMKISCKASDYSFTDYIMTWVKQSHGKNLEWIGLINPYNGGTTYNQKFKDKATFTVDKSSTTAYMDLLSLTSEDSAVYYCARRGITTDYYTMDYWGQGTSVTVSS
T2 sequence (VL, as listed by the source, chain 2 of 2): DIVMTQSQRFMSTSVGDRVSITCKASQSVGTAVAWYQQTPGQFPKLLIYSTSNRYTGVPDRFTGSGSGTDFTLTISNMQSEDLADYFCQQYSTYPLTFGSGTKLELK
The assay can be described thus: flow cytometry competition: hBCMA-ECD-Fc against K562-BCMA+ cells for mAb001 at 1 µg/ml.

Assay [4] has the same target. As to the kind of experiment: flow cytometry competition: BCMA of K562-BCMA+ supernatant against K562-BCMA+ cells for mAb001 at 1 µg/ml.

B1: chimeric antibody 107A9A4D2VH/VL-1 (antibody, human IgG1, kappa, V domains shown)
VH: EVQLQQSGPVLVKPGASVKMSCKASGYTFTDLYMNWLKQSHGKRLEWIGVINPYNGGTSYNQKFKGKATLTVDKSSSTAYMDLNSLTSEDSAVYYCARGDSIYVMDYWGQGTSFTVSS
VL: ENVLTQSPAIMSASPGEKVTMTCSASSSVSYMHWYQQKSSTSPKLWIYDTSKLSSGVPGRFSGSGSGKSYSLTISSMEAEDVATYYCFQGSGYPLFTFGSGTKLEIKR
notes: IgG1,κ chimeric antibody, HEK 293T supernatant; also called 107A9A4D2VH paired with 107A9A4D2VL-1
For the molecule B1, the “ELISA (OD450 nm)” value in assay [1] stood at 0.13 OD450. Moreover, the “FACS (MFI)” value in assay [2] was 42.5 MFI.

Consider B2, for which, in assay [3], the IC50 is 0.731 µg/mL and the “molar ratio at IC50” value was 1.7 molar ratio (:1).

B3: BCMA of K562-BCMA+ medium supernatant (soluble BCMA) (receptor, UniProt Q02223 1-54, looked up)
chain: MLQMAGQCSQNEYFDSLLHACIPCQLRCSSNTPPLTCQRYCNASVTNSVKGTNA
Take B3: in assay [4], the IC50 is 0.466 µg/mL and the “molar ratio at IC50” value is 10.4 molar ratio (:1).

B4: chimeric antibody of hybridoma 113B3F12 (antibody, human IgG1, kappa, V domains shown)
VH: EVQLQQSGPVLVKPGASVKMSCKASGYTFTDYYMNWVKQSHGKSLEWIGVINPYNGGTDYNQKFKGKATLTVDKSSSTAYMELNSLTSEDSAVYYCARRRESYGTSYQGAYFDSWGQGTTLTVSS
VL: DIQMTQTTSSLSASLGDRVTISCRASQDISNYLNWYQQKPDGTVKLLIYYTSRLHSGVPSRFSGSGSGTDYSLSISDLEQEDIATYFCQQVITLPWTFGGGTKLEIKR
notes: IgG1,κ chimeric antibody, HEK 293T supernatant
Take B4: the “ELISA (OD450 nm)” value in assay [1] was 0.09 OD450. Besides, the “FACS (MFI)” value in assay [2] was found to be 37.5 MFI.

B5: chimeric antibody of hybridoma 105C10F1 (antibody, human IgG1, kappa, V domains shown)
VH: EVKLLQSGGGLVQPGGSLKLSCAASGIDFSRYWMSWVRRAPGKGLEWIGEINPDSSTINYAPSLKDKFIISRDAAKNTLYLQMSKVRSEDTALYYCATLYYDYDGDYAMDYWGQGTSVTVSS
VL: DIVMTPSQKFMSTSVGDRVSVTCKASQNVGTNVAWYQQKPGQSPKALIYSASYRYSGVPDRFTGSGSGTDFTLTISNVQSEDLAEYFCQHYNSYPFTFGSGTKLEIKR
notes: as for B4
Regarding B5, the “ELISA (OD450 nm)” value in assay [1] was determined as 2.39 OD450. Besides, the “FACS (MFI)” value in assay [2] is 1800 MFI.
